The source of these data is the NTF2 design screens of Basanta et al. (2020).

This series is described as follows: protease stability score; higher = more stable; yeast display proteolysis, trypsin and chymotrypsin.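 Further: relative to predicted unfolded state with 0 unfolded-like and 1 meaning tenfold more protease.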
“DEDEKIARDQLEHFFHSVQTGNEDELRRLLDPNTYIDINGRTYHGREEVVKWMVHWFEHARLRRVHIRHSRSIGDKIILDTKMNVDINGVERHLDVNVIYLKVDGKWINHSEIVK” had a protease stability score of 1.56. Regarding “DEDEKIIEDIIRKIWLAFMTGDEELYERLADPEDRLEVGEKTAVGREDVRRALHEWIRKLGIKHSHTRHMDFQGDKLIIHGEMLFNGRTFDLQLEFNVVNGRLKSMHVRIR”, the protease stability score came to 1.58. The sequence “DEDEKIIQQFLREHTETNDTGDENTFKKQLDPHARTIFNGREYHGREDAYRILKELGWSRFEFHLRHVDIQGEKLHVMGLLRVDGKWLDVEIVANKINGRWVLTEFHIN” gave a protease stability score of 0.417.

Consider “DEDEKILEKYIRIETRALKTGNEEERENLADPNTKIDVNGVKIHGMEDWSRKLLKWLRDHGATNDLKFERIKFQGEKVILDGRLHVHYNGVDLEIETIIYFTKYNGKWILKSMEVI”, for which the protease stability score was 0.229. As for “DEDEKIVKHMLEVLIHLILTGDWEMFQKLADPNTRLDINGREQVGWESVTKNLEHMRYHDIRSQHIEIQGNKLRNLTRVDGEVDGVRREIEVHIYSTKINGKWRLTSMQFH”, the figure is 1.1; as for “DEDEKIYRWALSVFLRNFLTGDEDSLRRMMDPDVRLEVGDKEDHGMEKVVRWLTEMMRKFKGATVHLRDHKTQGNKVHLDLELNVGDKHSKLIIIIKKVDGQWIVDEFTVH”, 1.52; as for “DEDEKKLEHHLRTYEEALRTGDEELNHRLADPNTKVDVDGRYIHGRDFWREIMNQWRFKEMRFREIHLQGDKANVDTEVNIDVNGREMRTESHIISIKIDGRWMIKEVRFR”, 0.799. Sequence “DEDEKKLHKLSDELEHIWLTGDEDRWLELADPNTKVIINGKEVHGRENVAREIKKFLEDLGIDHFYIESSLAIDGRTDLNGQIHVNGRTLHVRIINHEFNGRVKRVEIHIR” had a protease stability score of 2.09. Turning to “DEDEKLKQEWMELFLESLRTGDWRILRKLIDPNVRLEVGDKQVIGREKVLEILKKILDEIRNQDVKLHDYTEINGRIYLDVELDLQQGDKRITLKIHTVLEKYDGRWIIRTFRIE”, the protease stability score was found to be 1.23. Consider “DEDEKLLEKIAREFFEALKTGDEDWLTELADPHVKLDVGEWDTHGMEEIKNVLKILLHELGFKHRELHDMDIVNGVNVIDVIIRINGKERKVTIIIVTIDGRIKSIHHRVN”, for which the protease stability score came out at 2.15. As for “DEDEKLMEETLKVLIRAFDTGNWEDLKRMVDPHVRIYFNGRIFHGREFFMEYVIHLRHHARIHLELKDIEVQGDKAHADSRVLVIQGDKSWEFDLEINMTKYDGRWHIKTIKIR”, the figure is 2.68. The figure for “DEDEKLSKFAIDNFIQLMLTGDEDSLLHLADPNARLHFNGVEIHGMEEVQERLMRERKERGVRIHSIHIEHIDIQGDWIIVHMHITQRVNGKEESIERILILLKINGRWHLHQIRLH” is 1.28. The figure for “DEDEKLSREAFRKLLEDRETGDEHMLTRNADPRARIEVNGVELHGREHAEKFWRHYHEKFKNIRINIEHHEIQGEKVIIRGILHVNGVNLTVEIHALKINGKWLNEEFSVK” is 0.129. “DEDEKMAREFVELWVHLLSTGNEDLEKHLVDPHVRVDINGQEIHGRNHLITFLIQIKNLTFEFRHVRITVVGDKIQVHIHGIVQVNGQWREVMIDFEAEKINGRWLQKQFHVKIH”: the protease stability score is 1.96. “DEDEKMLREYQRLFEEASKTGDWEHMVKLLDPDVRIRIGDKDIVGREHVLEQKKRHEDHLGIDRVNIKLVIRDERHQGEKIFLDGEFIMHFNGRTYRQHVTIILTKINGRWWIESIEIR” had a protease stability score of 1.19. As to “DEDEKMMELIIKWLQNWMLTGDFDVLHDLVDPHAKYDIGDKEMHGREAQSFLRRRFDHIEHVHLRIDDVESQGDKLIVHGQNTVVGEINGKRENFKRKVHITLEKIDGQWFEREVRVR”, the protease stability score turned out to be 1.51. “DEDEKMSHEASRVTLQVLITGDEEAMHRLLDPNARMDYGDKQFHGWEEVSKLTTELLTRLGVDHYHMNDERIYGEKLDLDLTIHVNGRNRKFIIIVRKINGRWLIDSMTFK” displayed a protease stability score of 0.576. Sequence “DEDEKNLEKVAHDFIRATETGNEKILHELLDPNTREEINGVDLHGRETIAKFFLDIRRNLGIKVRMRLRDWKIYNGVVELDTEVIIDVGDKRIEHKVVIYVVKYNGRWLIDKIEWI” gave a protease stability score of 1.81.

Consider “DEDEKNMHIAMEIYRESVETGNEKMHRHLLDPHARIRFDGQEFHGWKDAHRFMHHRTHEWRDHHIQLRDRDYIDGRVHIRVIIYGEFNGVRTTRDIEIHVEKIDGRWYFTNLIFG”, for which the protease stability score amounted to 0.285. For the sequence “DEDEKRARHALTLLVHSFLTGNFEFTTELLDPHYKLHVGEKTYIGRKAIKEWIREFHERIPNIKLKDITIEHMTWVGEKVVVHSRVEGEVDGKEMFLQVEIIMEKVNGRWIVHSIHMN”, the protease stability score came to 2.01.

Sequence “DEDEKRELARRFAKNFLHGDHDNIRDLADKDVDAQVGDQTFTGTEQLMRVVKEVRDRVDHFNLTSVDVHNGQADIHARAKVNGRDYRVKIRIKIHNGRILHVQFNRR” had a protease stability score of 1.31. Regarding “DEDEKRSEEFLNEFFHWVHTGDEEKLVKLMDPHMRLDVNGKESVGRENAFEMWHHLRIRRMDVRDIRVELVGDKAIARSDGHIDGEIDGVRIHTRVDLLLISRKVDGVWLFKSVSINSI”, the protease stability score came to 2.23. As for “DEDEKRVEHTERFLSHSRRTGDEETLETMFDPNAKNIIDGRIFIGREFVEIWVRKFKNATEDLKVEEIRVQGNKVELVGNLFVQVGDKRYELDTRIEMTKIDGRWIIHRIEFR”, the figure is 1.21. “DEDEKRWFDRADEVRRQWETGDFERHLRLMDPHVRMEVQQGDKHEEYHGRENVMEIIRQELERVKNVKLEVTDLEIQGEKVILRLKLHVNGRDIDIYIDIVFINGRIKHIRIRIQER” had a protease stability score of 1.38. On to “DEDEKSVKYAFTMYMQNITTGDEDTLKKYLDPNVKLHFNGVNLHGMESLNKWIREIRHRVRHVHFKDVRVIDGVLIVHIEWEVREDIDGQETEDRYIVRMIVLKIDGKWILRESQIL”, for which the protease stability score was 1.74. “DEDEKTAEETLNEFIRSLLTGDEDNLKHLLDPNTRFHINGQDIHGWEVYYEMFRQWRVTHVRLEVKDFRIFNGRLDADGHLRMHGTINGKNRDTSSILHMHSVKVNGRWVLTEVRVE”: the protease stability score was 1.78. The sequence “DEDEKVSHHAYKLIEHLFLTGDESTWMRMADPRTRIIIGDFHLIGREEWARVLKEILDRLGFKHIQFTDREVRVYGEKVHVELHLLLIQGDKEIRVELRYISDKIDGQWRYHSVTHHIK” had a protease stability score of 0.998. Sequence “DEDEKVVKLVFNEIREARRTGDEEKLHELFDPHVRLEQGDKNIHGREYMITQWRELRFHDYRINITHRTTYNGVAKVDGEVSVDYRIDGVRFHDKFRIKIVILKFDGRWMIHSEHIE” gave a protease stability score of 0.822.

Sequence “DEDEKWAERFLELLIRSLVTGDEKTLEELADPRVKVEIGDKILHGRDEFERFIHEARIKSVHVRRMTDINGVMLMDGETTGNIDGVDRRRRTRIWVLKINGQWHLHSYQVV” returned a protease stability score of 1.41. The figure for “DEDEKYEEHYVEMFLRWLQTGDEDQIERNADPNVRLDVNGRDIIGWENIIEHIRQIKNLRIQIRRVRVVDGRSIVDIRVEVNGKRHEVNLIVIIINGKLKEVKFEFR” is 2.71; for “DEDEKYLKEFLRILIEARRTGDEQLLERLMDPRVKLDNENHFSHGREDAVRHLNEHSKEARLESVEVHDVRVFNGVILWDVRIHGDIDGRRDTFNVIIIILKVNGRWRLREFIFT” it is 1.39. The figure for “DEDEKYMQEFLERLWRDLYTGDEESLTRRMDPRTRVDINGVDIHGMERVTEHIKHLVDRADHIELIIHTVNNVDGRAHNDGILVIKVNGREIRIETHFVLLKVDGRWRIQSEEYR” is 0.399; for “DEDEKYVREVFRRFVEAVITGNEEELLELIDPHVRVLINGVDNMGREKWSEWMKRYGFRVHHVRIDDEDLINGVARLDTTEDVEYDGRRDTRHSHIIINKVDGRWHIERLEFR” it is 1.01.

Regarding “DEDENIARHAMELYFKLFETGDFNTLSHLLDPNVRSNINGQTLHGRELMLKQFLDLWEHMGVDHIELKDSREHLVNGRVHRHFHGHLHVNGQTYEVHVRFIMVKVNGRWRHTSESISIR”, the protease stability score amounted to 1.1.
